B1: Ribonuclease pancreatic, P61823 (parent)
chain: MALKSLVLLSLLVLVLLLVRVQPSLGKETAAAKFERQHMDSSTSAASSSNYCNQMMKSRNLTKDRCKPVNTFVHESLADVQAVCSQKNVACKNGQTNCYQSYSTMSITDCRETGSSKYPNCAYKTTQANKHIIVACEGNPYVPVHFDASV

In this series the parent is B1. The note with it: Bos taurus, pH 4.2, Thermal, CD, Sodium acetate 0.01 M, NaCl 0.1 M, reversible: yes, structure 1RTB, whole UniProt chain shown; for ddG of mutation (higher = less stable) / heat capacity change of unfolding: 56.2 °C.

Broadly, the Tm is the temperature at which the thermal transition is half complete.

For P119S, the “ddG of mutation (higher = less stable)” value was 2.1 kcal/mol; the “heat capacity change of unfolding” value was determined as 2.2 kcal/mol/K; the melting temperature (Tm) stood at 47.5 °C; the “change of melting temperature, mutant - wild type (higher = more stable)” value (shortened to “change of melting temperature, mutant”) was -8.5 °C.
For the variant P119A, the “ddG of mutation (higher = less stable)” value is 2.7 kcal/mol; the “heat capacity change of unfolding” value came to 2.2 kcal/mol/K; the Tm was 46.5 °C; the “change of melting temperature, mutant” value was -9.5 °C.
As for P140A, the “ddG of mutation (higher = less stable)” value was 3.2 kcal/mol; the “heat capacity change of unfolding” value is 2.2 kcal/mol/K; the melting temperature (Tm) was 45.5 °C; the “change of melting temperature, mutant” value is -10.5 °C.
With P140G, the “ddG of mutation (higher = less stable)” value is 2.8 kcal/mol; the “heat capacity change of unfolding” value was determined as 2.2 kcal/mol/K; the melting temperature (Tm) was 45.5 °C; the “change of melting temperature, mutant” value is -10.5 °C.
As for P119A P140G, the “ddG of mutation (higher = less stable)” value worked out at 4.2 kcal/mol; the “heat capacity change of unfolding” value came out at 2.2 kcal/mol/K; the Tm was 36 °C; the “change of melting temperature, mutant” value is -20 °C.
